Literature values in paper PMC8223436.

Target: HER2 domain IV (Homo sapiens) (UniProt P04626)

## Trastuzumab
  Kd: 0.56 nM
